Source: article PMC6853952, “MUC4-ErbB2 Oncogenic Complex: Binding studies using Microscale Thermophoresis” (Scientific Reports, 2019)

B1: eGFP-MUC4_(EGF3+1+2) (truncated mutant encompassing only the EGF domains of MUC4) (domain or fragment, human, UniProt Q99102 5118-5360, looked up)
chain: QNQSCPVNYCYNQGHCYISQTLGCQPMCTCPPAFTDSRCFLAGNNFSPTVNLELPLRVIQLLLSEEENASMAEVNASVAYRLGTLDMRAFLRNSQVERIDSAAPASGSPIQHWMVISEFQYRPRGPVIDFLNNQLLAAVVEAFLYHVPRRSEEPRNDVVFQPISGEDVRDVTALNVSTLKAYFRCDGYKGYDLVYSPQSGFTCVSPCSRGYCDHGGQCQHLPSGPRCSCVSFSIYTAWGEHCE
notes: MUC4, UniProt Q99102; said to hold the three EGF-like domains EGF3, EGF1 and EGF2 with what lies between; source: CHO-K1, transfected (peGFP-C1), selected, in cell lysate, used without further purification

Tests used:
[1] = target: eGFP-MUC4β fusion protein (transmembrane β subunit of MUC4) (human) (UniProt Q99102); assay: MST; normal model, optimised conditions: MPer lysate with the eGFP fusion kept constant around 33 nM, Fc protein titrated 1:1 in PBS with 0.05% P20 from 1 µM to 0.05 nM; 80% MST power, MST-on 30 s; blue LED
[2] = target: eGFP-MUC4β fusion protein (transmembrane β subunit of MUC4) (human) (UniProt Q99102); assay: MST; normal model: eGFP fusion in CHO-K1 lysate kept constant, ErbB2-Fc titrated, label-free; lysis buffer RIPA, dilution in Tris-based MST buffer; 23 °C
[3] = target: eGFP-MUC4β fusion protein (transmembrane β subunit of MUC4) (human) (UniProt Q99102); assay: MST; normal model: eGFP fusion in CHO-K1 lysate kept constant, ErbB2-Fc titrated, label-free; lysis buffer RIPA, dilution in PBS; 23 °C
[4] = target: eGFP-MUC4β fusion protein (transmembrane β subunit of MUC4) (human) (UniProt Q99102); assay: MST; normal model: eGFP fusion in CHO-K1 lysate kept constant, ErbB2-Fc titrated, label-free; lysis buffer MPer, dilution in MST buffer; 23 °C
[5] = target: T1, recombinant human ErbB2-Fc chimera (human, UniProt P04626 23-652); assay: MST; reverse model: ErbB2-Fc labelled on its 6His-tag with RED-tris-NTA dye kept constant, MPer lysate containing the eGFP fusion titrated 3:1 in PBS with 0.05% P20 (up to about 400 nM); red LED, 80% MST power; settings: one partner purified
T1 construct: ErbB2 receptor tyrosine kinase, human; extracellular domains, lacks the TM and CT part; Described as a disulfide-linked homodimeric protein; In the reverse model it was labelled on its 6His-tag with RED-tris-NTA dye (not covalent); also called recombinant ErbB2

[6] = target: T1, recombinant human ErbB2-Fc chimera; assay: MST; normal model, optimised conditions: MPer lysate with the eGFP fusion kept constant around 33 nM, Fc protein titrated 1:1 in PBS with 0.05% P20 from 1 µM to 0.05 nM; 80% MST power, MST-on 30 s; blue LED; settings: one partner purified

Row | Molecule | Kd [1] [nM] | Kd [2] [µM] | Kd [3] [µM] | Kd [4] [µM] | Kd [5] [nM] | Kd [6] [nM]
1 | PD-1-Fc (non-relevant protein containing the same Fc as recombinant ErbB2) (from UniProt Q15116 25-170) (Fc fusion) | > 20000 |  |  |  |  | 
2 | recombinant human ErbB2-Fc chimera (from UniProt P04626 23-652) (Fc fusion) | 131 | > 20 | > 20 | > 20 |  | 
3 | B1 |  |  |  |  | 65 ± 14 | 79 ± 18
